Experimental data as given in the supplement of paper PMC9112550, “Optimization of the antimicrobial peptide Bac7 by deep mutational scanning” (BMC Biology, 2022).

Tested on: Escherichia coli TOP10
Assay: shrunken log2 fold change of peptide-encoding DNA abundance (4.5 h post-induction vs induction); higher = less antimicrobial activity (less host growth inhibition)
Details: time post-induction: 4.5 h; library: site-saturation at positions 5, 18, 19, 20
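Further: peptides expressed intracellularly from a pBAD plasmid library in pooled LB shake-flask culture, induced with 0.3% L-arabinose, DNA abundance read by NGS, three biological replicates, DESeq2 with apeglm shrinkage.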

Row | Sequence | shrunken log2 fold change
1 | RRIRPRPPRLPRPRPRPKEDPRP | 0.176
2 | RRIRLRPPRLPRPRPRPYVHPRP | -0.783
3 | RRIRTRPPRLPRPRPRPQMQPRP | -0.0728
4 | RRIRHRPPRLPRPRPRPNQQPRP | -0.0412
5 | RRIRMRPPRLPRPRPRPMMYPRP | -0.0758
6 | RRIRQRPPRLPRPRPRPHNLPRP | -0.183
7 | RRIRTRPPRLPRPRPRPMLNPRP | -0.253
8 | RRIRKRPPRLPRPRPRPTQTPRP | 1.25
9 | RRIRVRPPRLPRPRPRPYYGPRP | -0.203
10 | RRIRSRPPRLPRPRPRPITHPRP | -0.419
11 | RRIRQRPPRLPRPRPRPPRQPRP | 0.101
12 | RRIRQRPPRLPRPRPRPEDRPRP | -0.0214
13 | RRIRKRPPRLPRPRPRPYFCPRP | -0.288
14 | RRIRRRPPRLPRPRPRPASGPRP | 0.302
15 | RRIRHRPPRLPRPRPRPYYLPRP | -0.72
16 | RRIRFRPPRLPRPRPRPIDDPRP | -0.548
17 | RRIRHRPPRLPRPRPRPKMQPRP | -0.121
18 | RRIRLRPPRLPRPRPRPSWWPRP | 1.77
19 | RRIRERPPRLPRPRPRPSYWPRP | -0.266
20 | RRIRCRPPRLPRPRPRPVSGPRP | 0.357
21 | RRIRPRPPRLPRPRPRPDSHPRP | 0.101
22 | RRIRWRPPRLPRPRPRPICLPRP | 0.0313
23 | RRIRWRPPRLPRPRPRPDPSPRP | -0.0349
24 | RRIRIRPPRLPRPRPRPDTVPRP | -0.301
25 | RRIRCRPPRLPRPRPRPYEMPRP | -0.151

Row | Sequence | shrunken log2 fold change
26 | RRIRARPPRLPRPRPRPCFGPRP | 0.0532
27 | RRIRLRPPRLPRPRPRPACEPRP | 0.317
28 | RRIRGRPPRLPRPRPRPGPCPRP | 0.854
29 | RRIRRRPPRLPRPRPRPCLRPRP | -0.0202
30 | RRIRLRPPRLPRPRPRPQEWPRP | 0.0562
31 | RRIRMRPPRLPRPRPRPYCIPRP | 0.0786
32 | RRIRRRPPRLPRPRPRPVMWPRP | 0.0562
33 | RRIRHRPPRLPRPRPRPWAKPRP | -0.235
34 | RRIRVRPPRLPRPRPRPKIWPRP | 0.0958
35 | RRIRTRPPRLPRPRPRPVHFPRP | 0.218
36 | RRIRERPPRLPRPRPRPCTMPRP | 0.018
37 | RRIRKRPPRLPRPRPRPMKQPRP | -0.108
38 | RRIRNRPPRLPRPRPRPIFMPRP | -0.116
39 | RRIRGRPPRLPRPRPRPKQEPRP | 0.0916
40 | RRIRVRPPRLPRPRPRPDAAPRP | 0.976
41 | RRIRYRPPRLPRPRPRPQHGPRP | -0.0664
42 | RRIRNRPPRLPRPRPRPRVVPRP | 0.078
43 | RRIRWRPPRLPRPRPRPPLQPRP | 0.475
44 | RRIRWRPPRLPRPRPRPYECPRP | -0.148
45 | RRIRKRPPRLPRPRPRPFMFPRP | -0.0278
46 | RRIRWRPPRLPRPRPRPCMFPRP | -0.244
47 | RRIRERPPRLPRPRPRPRWIPRP | 1.93
48 | RRIRKRPPRLPRPRPRPKAYPRP | 0.0431
49 | RRIRYRPPRLPRPRPRPRNTPRP | -0.503
50 | RRIRKRPPRLPRPRPRPPNIPRP | -1.03

Row | Sequence | shrunken log2 fold change
51 | RRIRDRPPRLPRPRPRPLCYPRP | 0.00826
52 | RRIRARPPRLPRPRPRPTWHPRP | 0.419
53 | RRIRARPPRLPRPRPRPNDRPRP | -0.0519
54 | RRIRPRPPRLPRPRPRPSLRPRP | 0.0129
55 | RRIRPRPPRLPRPRPRPLAVPRP | 0.161
56 | RRIRNRPPRLPRPRPRPEVFPRP | 0.0362
57 | RRIRYRPPRLPRPRPRPDKDPRP | -0.151
58 | RRIRNRPPRLPRPRPRPDIYPRP | -0.265
59 | RRIRFRPPRLPRPRPRPFLHPRP | -0.329
60 | RRIRVRPPRLPRPRPRPKKFPRP | -0.0429
61 | RRIRPRPPRLPRPRPRPWNCPRP | -0.134
62 | RRIRPRPPRLPRPRPRPPEGPRP | 0.436
63 | RRIRERPPRLPRPRPRPCHWPRP | -0.0135
64 | RRIRERPPRLPRPRPRPLETPRP | -0.0311
65 | RRIRKRPPRLPRPRPRPMSKPRP | 0.388
66 | RRIRRRPPRLPRPRPRPIFRPRP | 0.584
67 | RRIRMRPPRLPRPRPRPGTRPRP | 0.675
68 | RRIRMRPPRLPRPRPRPKCMPRP | 0.745
69 | RRIRRRPPRLPRPRPRPRIMPRP | 0.0517
70 | RRIRQRPPRLPRPRPRPQKNPRP | -0.297
71 | RRIRKRPPRLPRPRPRPSSAPRP | 0.214
72 | RRIRDRPPRLPRPRPRPWTSPRP | 0.21
73 | RRIRTRPPRLPRPRPRPNLTPRP | -0.00355
74 | RRIRYRPPRLPRPRPRPMHSPRP | -1.02
75 | RRIRKRPPRLPRPRPRPETGPRP | 0.226

Row | Sequence | shrunken log2 fold change
76 | RRIRNRPPRLPRPRPRPTVDPRP | 0.0566
77 | RRIRFRPPRLPRPRPRPLGGPRP | -0.235
78 | RRIRHRPPRLPRPRPRPEYSPRP | -0.0276
79 | RRIRDRPPRLPRPRPRPTVYPRP | 0.12
80 | RRIRYRPPRLPRPRPRPCWAPRP | -0.434
81 | RRIRPRPPRLPRPRPRPQDEPRP | 0.0996
82 | RRIRWRPPRLPRPRPRPWKMPRP | -0.0467
83 | RRIRGRPPRLPRPRPRPFMMPRP | -0.467
84 | RRIRMRPPRLPRPRPRPRPGPRP | 1.38
85 | RRIRPRPPRLPRPRPRPRDWPRP | 0.531
86 | RRIRDRPPRLPRPRPRPYPRPRP | 0.0039
87 | RRIRYRPPRLPRPRPRPEHLPRP | -0.357
88 | RRIRNRPPRLPRPRPRPKRPPRP | 0.589
89 | RRIRLRPPRLPRPRPRPGMRPRP | 0.787
90 | RRIRVRPPRLPRPRPRPEQLPRP | 0.185
91 | RRIRVRPPRLPRPRPRPNLLPRP | -0.22
92 | RRIRRRPPRLPRPRPRPPKMPRP | 0.286
93 | RRIRKRPPRLPRPRPRPVMSPRP | -0.123
94 | RRIRNRPPRLPRPRPRPIQNPRP | -0.139
95 | RRIRHRPPRLPRPRPRPKCSPRP | -0.0294
96 | RRIRERPPRLPRPRPRPEAIPRP | -0.0664
97 | RRIRLRPPRLPRPRPRPLPIPRP | -0.129
98 | RRIRYRPPRLPRPRPRPMWKPRP | -0.00663
99 | RRIRPRPPRLPRPRPRPRMHPRP | 0.115
100 | RRIRRRPPRLPRPRPRPEDYPRP | 0.252

Row | Sequence | shrunken log2 fold change
101 | RRIRLRPPRLPRPRPRPNKMPRP | -0.158
102 | RRIRTRPPRLPRPRPRPLVQPRP | 0.149
103 | RRIRRRPPRLPRPRPRPVKRPRP | 0.457
104 | RRIRCRPPRLPRPRPRPVGTPRP | -0.149
105 | RRIRDRPPRLPRPRPRPDDTPRP | 0.336
106 | RRIRDRPPRLPRPRPRPHVSPRP | 0.27
107 | RRIRSRPPRLPRPRPRPQRSPRP | 0.316
108 | RRIRGRPPRLPRPRPRPYPVPRP | 0.0121
109 | RRIRERPPRLPRPRPRPKCHPRP | -0.428
110 | RRIRQRPPRLPRPRPRPKHQPRP | -0.386
111 | RRIRVRPPRLPRPRPRPIPTPRP | 0.191
112 | RRIRVRPPRLPRPRPRPSGTPRP | -0.298
113 | RRIRIRPPRLPRPRPRPEFPPRP | -0.0115
114 | RRIRKRPPRLPRPRPRPHLRPRP | -0.0961
115 | RRIRVRPPRLPRPRPRPELEPRP | 0.292
116 | RRIRWRPPRLPRPRPRPKDMPRP | -0.0331
117 | RRIRNRPPRLPRPRPRPCMMPRP | -0.325
118 | RRIRYRPPRLPRPRPRPFKDPRP | -0.0864
119 | RRIRDRPPRLPRPRPRPLIFPRP | 0.135
120 | RRIRKRPPRLPRPRPRPGARPRP | 0.962
121 | RRIRARPPRLPRPRPRPMPAPRP | 0.722
122 | RRIRPRPPRLPRPRPRPILDPRP | -0.0669
123 | RRIRKRPPRLPRPRPRPKTWPRP | 0.344
124 | RRIRGRPPRLPRPRPRPSIIPRP | 0.211
125 | RRIRRRPPRLPRPRPRPNIEPRP | 0.0519

Row | Sequence | shrunken log2 fold change
126 | RRIRIRPPRLPRPRPRPKMCPRP | 0.168
127 | RRIRTRPPRLPRPRPRPYMYPRP | -0.767
128 | RRIRYRPPRLPRPRPRPHREPRP | -0.00804
129 | RRIRKRPPRLPRPRPRPWLQPRP | -0.0256
130 | RRIRFRPPRLPRPRPRPMSVPRP | -0.482
131 | RRIRFRPPRLPRPRPRPICTPRP | -0.218
132 | RRIRRRPPRLPRPRPRPLGMPRP | 0.471
133 | RRIRWRPPRLPRPRPRPSGKPRP | -0.0778
134 | RRIRTRPPRLPRPRPRPEKGPRP | -0.0355
135 | RRIRRRPPRLPRPRPRPRFVPRP | 0.375
136 | RRIRRRPPRLPRPRPRPPARPRP | 0.762
137 | RRIRTRPPRLPRPRPRPLGIPRP | -0.638
138 | RRIRFRPPRLPRPRPRPCVFPRP | -0.0936
139 | RRIRHRPPRLPRPRPRPYKPPRP | -0.466
140 | RRIRIRPPRLPRPRPRPFKPPRP | -0.395
141 | RRIRERPPRLPRPRPRPPHGPRP | 0.19
142 | RRIRNRPPRLPRPRPRPYLGPRP | -0.21
143 | RRIRGRPPRLPRPRPRPTLVPRP | 1.87
144 | RRIRARPPRLPRPRPRPERGPRP | 0.305
145 | RRIRVRPPRLPRPRPRPWINPRP | -0.565
146 | RRIRGRPPRLPRPRPRPLKPPRP | 0.609
147 | RRIRQRPPRLPRPRPRPGQVPRP | 0.111
148 | RRIRGRPPRLPRPRPRPPAIPRP | 0.859
149 | RRIRFRPPRLPRPRPRPERRPRP | 0.166
150 | RRIRLRPPRLPRPRPRPGYYPRP | -0.166
